Experimental data reported in the supplement of paper PMC7125110.
± gives the standard error. For some assays here: Fewer inactive variants are shown than the library holds.

B1: glmS ribozyme (parent)
chain: AUAAAAGCGCCAGAACUACAGAAAUGUAGUUGACGAGGAGGAGGUUUAUCGAAUUUUCGGCGGAUGCCUCCAAA

Legend:
Details in all cases: with glucosamine-6-phosphate
glucosamine-6-phosphate [1] = variants of: B1; experiment: kcat; higher = faster cleavage; RNA array
Summary of the method: (§1)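 Glucosamine-6-phosphate, from 40 μM to 10 mM in HEPES/KCl/Mg(OAc)2 buffer, was flowed over sequenced MiSeq chips carrying barcoded ribozyme variants transcribed in situ by E. coli RNA polymerase. A hybridised Cy3 probe tracked the variants at 37 °C as tiles were imaged over ~14 h. kobs, kcat and KM were obtained by fitting normalised per-tile medians to exponential decays and then applying weighted Michaelis–Menten fits across concentrations.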

glucosamine-6-phosphate [2] = variants of: B1; experiment: KM; higher = weaker cofactor use; RNA array
Summary of the method: as §1

glucosamine-6-phosphate [3] = variants of: B1; experiment: self-cleavage kobs at 40 uM GlcN6P; higher = faster cleavage; RNA array
Summary of the method: as §1

glucosamine-6-phosphate [4] = variants of: B1; experiment: self-cleavage kobs at 640 uM GlcN6P; higher = faster cleavage; RNA array
Summary of the method: as §1

glucosamine-6-phosphate [5] = variants of: B1; experiment: self-cleavage kobs at 2500 uM GlcN6P; higher = faster cleavage; RNA array
Summary of the method: as §1

glucosamine-6-phosphate [6] = variants of: B1; experiment: self-cleavage kobs at 10000 uM GlcN6P; higher = faster cleavage; RNA array
Summary of the method: as §1

glucosamine-6-phosphate [7] = variants of: B1; experiment: self-cleavage kobs at 160 uM GlcN6P; higher = faster cleavage; RNA array
Summary of the method: as §1

| Variant | kcat (glucosamine-6-phosphate [1]) [s⁻¹] | KM (glucosamine-6-phosphate [2]) [µM] | self-cleavage kobs at 40 uM GlcN6P (glucosamine-6-phosphate [3]) [s⁻¹] | self-cleavage kobs at 640 uM GlcN6P (glucosamine-6-phosphate [4]) [s⁻¹] | self-cleavage kobs at 2500 uM GlcN6P (glucosamine-6-phosphate [5]) [s⁻¹] | self-cleavage kobs at 10000 uM GlcN6P (glucosamine-6-phosphate [6]) [s⁻¹] | self-cleavage kobs at 160 uM GlcN6P (glucosamine-6-phosphate [7]) [s⁻¹] |
| --- | --- | --- | --- | --- | --- | --- | --- |
| AUAAAAGCGCCAGAACUACAGAAAUGUAAUUGACGAGGAGGAGGUUUAUCGUAUUUUCGGCGGAUGCCUCCAAA | 0.0001272 ± 9.8e-07 | 2770 ± 58 | < 1e-05 | 2.42e-05 ± 1.1e-05 | 5.99e-05 ± 1.4e-05 | 9.97e-05 ± 1.3e-05 |  |
| AUAAAAGCGCCAGAACUACAGAAAUGUAGUUGACGAGGCGGAGCUUUAUCGAAUUUUCGGCGGAUGCCUCCAAA | 1.03e-05 ± 1.3e-06 | 3630 ± 1200 |  |  |  |  | < 1e-05 |
| AUAAAAGCGCCAGAACUACAGAAAUGUAGUUGACGAGGCGGAGUUUUAUCGAAUUUUCGGCGGAUGCCUCCAAA | 4.89e-05 ± 4.8e-06 | 4080 ± 1200 |  |  |  | 3.48e-05 ± 8.8e-06 |  |
| AUAAAAGCGCCAGAGCUACAGAAAUGUAGUUGACGGGGAGGAGGUUUAUCGAAUUUUCGGCGGAUGCCUCCAAA | 1.79e-05 ± 1.6e-07 | 8450 ± 150 |  |  |  |  |  |
| AUAAAAGCGCCAGAAAUACAGAAAUGUAGUUGACGAGGAGGAGGUUUAUCGAAUUUUCGGCGUAUGCCUCCAAA | < 1e-05 |  | < 1e-05 |  |  | < 1e-05 | < 1e-05 |
| AUAAAAGCGCCAGAACUACAGAAAUGUAGUUGACGAAGAGGAGGUUUAUCGAAUUUUCGGCGGAUGACUCCAAA | 0.000407 ± 4.2e-05 | 1680 ± 370 |  | 0.000119 ± 2e-05 | 0.000258 ± 4e-05 | 0.000336 ± 4.8e-05 |  |
| AUAAAAGCGCCAGAACUACAGAAAUGUAGUUGACGAGGAGGAGGUUUAUCGAAUUUUAGGCGGAUGCCUGCAAA | 5.06e-05 ± 4.7e-06 | 91.6 ± 44 |  | 3.65e-05 ± 1.3e-05 | 5.19e-05 ± 1.1e-05 |  | 3.59e-05 ± 1.2e-05 |
| AUAAAAGCGCCAGAACUACAGAAAUGUAGUUGACGAGGAGGAGGUUUAUCGAAUUUUCGGCGGAUUCCUGCAAA | 0.000127 ± 1.1e-05 | 550 ± 180 |  | 5.98e-05 ± 1.4e-05 | 0.000112 ± 1.7e-05 | 0.000117 ± 1.9e-05 | 3.86e-05 ± 1.7e-05 |
| AUAAAAGCGCCAGAACUACAGAAAUGUAGUUGACGAGGAGGAGGAUUAUCGAAUUUUCGGCGGAUGCUUCCAAA | 0.0022 ± 0.00039 | 1080 ± 320 | 7.41e-05 ± 1.2e-05 | 0.000729 ± 0.00013 | 0.00176 ± 0.00032 | 0.00194 ± 0.00027 | 0.000537 ± 0.00012 |
| AUAAAAGCGCCAUAACUACAGAAAUGUAGUUGACGAGGAGGAGGUUUAUCGAAUUUUCGGCGGAUGCUUCCAAA | 0.000114 ± 6.9e-06 | 1630 ± 310 |  | 2.76e-05 ± 8.2e-06 | 7.37e-05 ± 8.5e-06 | 9.63e-05 ± 8.5e-06 |  |
| AUAAAAGCGCCAGAACUACAGAAAUGUAGUUGACGAGGAGUAGGUGUAUCGAAUUUUCGGCGGAUGCCUCCAAA | 0.00077 ± 0.00021 | 1560 ± 690 |  | 0.000197 ± 4.2e-05 | 0.000433 ± 0.00011 | 0.000804 ± 0.00021 | 8.6e-05 ± 2.2e-05 |
| AUAAAAGCGCCAUAACUACAGAAAUGUAGUUGACGAGGAGGAGGUUUAUCGAAUUUUCGGCGGAUGCCUUCAAA | 0.00213 ± 0.00039 | 3200 ± 840 | 2.45e-05 ± 1e-05 | 0.000329 ± 5.2e-05 | 0.000792 ± 0.00018 | 0.00172 ± 0.00026 | 0.000126 ± 2.3e-05 |
| AUAAAAGCGCCAGAACUACAGAAAUGUAGUUGACGAGCAAGAGGUUUAUCGAAUUUUCGGCGGAUGCCUCCAAA | < 1e-05 |  |  |  |  | < 1e-05 | < 1e-05 |
| AUAAAAGCGCCAGCACUACAGAAAUGUAGUUGACGAGGUGGAGGUUUAUCGAAUUUUCGGCGGAUGCCUCCAAA | 0.00308 ± 0.00063 | 2440 ± 670 | 6.46e-05 ± 6.9e-06 | 0.000605 ± 6.5e-05 | 0.00174 ± 0.00021 | 0.00242 ± 0.00026 | 0.000162 ± 1.9e-05 |
| AUAAACGCGCCAGAGCUACAGAAAUGUAGUUGACGAGGAGGAGGUUUAUCGAAUUUUCGGCGGAUGCCUCCAAA | 0.00015 ± 3.4e-06 | 2500 ± 150 |  | 3.25e-05 ± 1.4e-05 | 7.37e-05 ± 1.3e-05 | 0.000121 ± 1.6e-05 |  |
